Results from paper PMC4919659 (2016).

B1: EGFP-RASSF5C (wild type) [not stated] / mCherry-SARAH_(MST1) [not stated] (parent complex)
chain 1: MTVDSSMSSGYCSLDEELEDCFFTAKTTFFRNAQSKHLSKNVCKPVEETQRPPTLQEIKQKIDSYNTREKNCLGMKLSEDGTYTGFIKVHLKLRRPVTVPAGIRPQSIYDAIKEVNLAATTDKRTSFYLPLDAIKQLHISSTTTVSEVIQGLLKKFMVVDNPQKFALFKRIHKDGQVLFQKLSIADRPLYLRLLAGPDTEVLSFVLKENETGEVEWDAFSIPELQNFLTILEKEEQDKIQQVQKKYDKFRQKLEEALRESQGKPG
chain 2: DYEFLKSWTVEDLQKRLLALDPMMEQEIEEIRQKYQSKRQPILDAIEAKKRRQQNF
B2: EGFP-RASSF1 (wild type) [not stated] / mCherry-SARAH_(MST1) [not stated] (parent complex)
chain 1: MSGEPELIELRELAPAGRAGKGRTRLERANALRIARGTACNPTRQLVPGRGHRFQPAGPATHTWCDLCGDFIWGVVRKGLQCAHCKFTCHYRCRALVCLDCCGPRDLGWEPAVERDTNVDEPVEWETPDLSQAEIEQKIKEYNAQINSNLFMSLNKDGSYTGFIKVQLKLVRPVSVPSSKKPPSLQDARRGPGRGTSVRRRTSFYLPKDAVKHLHVLSRTRAREVIEALLRKFLVVDDPRKFALFERAERHGQVYLRKLLDDEQPLRLRLLAGPSDKALSFVLKENDSGEVNWDAFSMPELHNFLRILQREEEEHLRQILQKYSYCRQKIQEALHACPLG
chain 2: B1 chain 2
B3: EGFP-RASSF5C (wild type) [not stated] / myc-MST1 K59R [not stated] (parent complex)
chain 1: B1 chain 1
chain 2: METVQLRNPPRRQLKKLDEDSLTKQPEEVFDVLEKLGEGSYGSVYKAIHKETGQIVAIRQVPVESDLQEIIKEISIMQQCDSPHVVKYYGSYFKNTDLWIVMEYCGAGSVSDIIRLRNKTLTEDEIATILQSTLKGLEYLHFMRKIHRDIKAGNILLNTEGHAKLADFGVAGQLTDTMAKRNTVIGTPFWMAPEVIQEIGYNCVADIWSLGITAIEMAEGKPPYADIHPMRAIFMIPTNPPPTFRKPELWSDNFTDFVKQCLVKSPEQRATATQLLQHPFVRSAKGVSILRDLINEAMDVKLKRQESQQREVDQDDEENSEEDEMDSGTMVRAVGDEMGTVRVASTMTDGANTMIEHDDTLPSQLGTMVINAEDEEEEGTMKRRDETMQPAKPSFLEYFEQKEKENQINSFGKSVPGPLKNSSDWKIPQDGDYEFLKSWTVEDLQKRLLALDPMMEQEIEEIRQKYQSKRQPILDAIEAKKRRQQNF
B4: EGFP-RASSF1 (wild type) [not stated] / myc-MST1 K59R [not stated] (parent complex)
chain 1: B2 chain 1
chain 2: B3 chain 2

Variants of: B1
Experiment: FRET-FLIM in cells (EGFP donor lifetime, monoexponential fit, wide-field imaging); co-expressed with mCherry-SARAH(MST1); median of segmented cells; parent: 2.27e+03; read off a plot

Question: chain 1 L228P was tested. Which response did it give?
Answer: ~2490 ps

Question: For chain 1 L224P, which response is on record?
Answer: ~2380 ps

Question: Which response does the source give for chain 1 L231P here?
Answer: ~2430 ps

Variants of: B2
Experiment: FRET-FLIM in cells (EGFP donor lifetime, monoexponential fit, wide-field imaging); co-expressed with mCherry-SARAH(MST1); median of segmented cells; parent: 2.25e+03; read off a plot

Question: chain 1 L308P was tested. Which response did it give?
Answer: ~2500 ps

Question: How did the response turn out when chain 1 L301P was run?
Answer: ~2510 ps

Question: For chain 1 L305P, which response is on record?
Answer: ~2490 ps

Variants of: B3
Experiment: co-immunoprecipitation (IP anti-myc, IB anti-GFP), band quantification; n = 3; parent: 1.02; read off a plot

Question: For chain 1 L231P, which ratio to parent is on record?
Answer: ~0.85

Question: Which ratio to parent does the source give for chain 1 L228P here?
Answer: ~0.9

Question: With chain 1 L224P as the variant, how does the ratio to parent read?
Answer: ~0.98

Variants of: B4
Experiment: co-immunoprecipitation (IP anti-myc, IB anti-GFP), band quantification; n = 3; parent: 1.05; read off a plot

Question: How did the ratio to parent turn out when chain 1 L301P was run?
Answer: ~0.32

Question: With chain 1 L308P as the variant, how does the ratio to parent read?
Answer: ~0.13

Question: chain 1 L305P was tested. Which ratio to parent did it give?
Answer: ~0.07
